# From PMC8318589, “Structure and analysis of nanobody binding to the human ASIC1a ion channel” (eLife, 2021)
# Numbering of substitutions follows the chain as printed.
# T1: human ASIC1a-Flag (human) (UniProt P78348)
# T1 sequence: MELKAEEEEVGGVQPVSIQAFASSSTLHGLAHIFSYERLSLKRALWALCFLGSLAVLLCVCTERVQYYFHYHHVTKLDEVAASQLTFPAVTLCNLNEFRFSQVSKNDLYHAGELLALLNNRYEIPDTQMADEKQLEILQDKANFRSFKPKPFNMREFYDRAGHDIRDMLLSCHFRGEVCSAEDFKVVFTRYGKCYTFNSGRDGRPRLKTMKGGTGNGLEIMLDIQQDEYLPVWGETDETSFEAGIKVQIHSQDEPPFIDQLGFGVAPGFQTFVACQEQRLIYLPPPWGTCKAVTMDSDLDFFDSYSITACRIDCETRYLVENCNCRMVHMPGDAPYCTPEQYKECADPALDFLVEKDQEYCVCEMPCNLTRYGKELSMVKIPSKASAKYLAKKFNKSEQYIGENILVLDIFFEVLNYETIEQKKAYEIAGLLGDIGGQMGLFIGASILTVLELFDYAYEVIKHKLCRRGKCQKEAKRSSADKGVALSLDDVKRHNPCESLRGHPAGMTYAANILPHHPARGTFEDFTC
# B1: F7 (VHH)
# VHH: QVQLVESGGGLVMAGGSLSLSCAASGRLFSTWTMGWFRQAPGKEREFVGAIRRVGDSPSYADSVKGRFTISRDSTKNALYLKMNSLKPEDTAVYYCAAKRFGNEYEYWGQGTQVTVSS
# B2: G11 (VHH)
# VHH: B1 VHH with V2L, L28T, G35A, V54I, S74N, T75A
# B3: A12-2 (VHH)
# VHH: B1 VHH with V2L
# B4: G4 (VHH)
# VHH: QLQLVESGGGLVQPGGSLRLTCAASGFALDDYTIGWFRQAPGNEREGVACMHGGGIHIADSLKGRITISRDNAKNTVYLQMNSLKPEDTAVYYCAARLATATRWTCKLSDMDYWGKGTLVTVSS
# B5: H7 (VHH)
# VHH: QLQLVESGGGLVQPGGSLRLSCAASGGTIDYYTIGWFRQAPGKEREGVSCIISKADSTKYADTVEGRFTISSDKAKNTVYLQMNSLQPEDTGVYFCAAYRVLIAGRNPGCLLNPPAEYDYWGQGTQVTVSS
# B6: G10 (VHH)
# VHH: QVQLVESGGGLVQPGGSLRLSCAASGGTLDVYTIGWFRQAPGKEREGLSCLSSSDGSTYYADSVKGRFTISRDNAKNTMYLQMNSLKPEDTAVYYCVAGAWTHVQAMCVTCFGCDWGQGTQVTVVS
# B7: G4-3 (VHH)
# VHH: QVQLVESGGGLVQPGGSLRLSCAASGSTLDYYAIGWFRQAPGKEREGVSCISRSGGSTYYADSVKGRFTISRDNAKNTVYLQMNSLKPEDTAVYYCAADRGAVGGIFNSDYDAQNSLPPCSYGMDYWGKGTLVTVSS
# B8: B11 (VHH)
# VHH: QLQLVESGGGLVQPGGSLRLSCAASGLTLDNYAIGWFRQVPGKEREDVSCISTSHGSLHYANSVKGRFTISVDAAENTVYLQMNSLNAEDTAVYFCAARGFDSDCSVYGMDFWGKGTPVTVSS
# B9: E9-3 (VHH)
# VHH: QLQLVESGGDLVQPGGSLRLTCAASGFTFSSLTMSWHRQALGKERELVAAIGEATGATYYVESVKGRFIISRDNAKNTVFLQMNSLKPEDTAVYYCKAASSSNDYWGQGTQVTVSS
# B10: 1A-B1 (VHH)
# chain: QLQLVESGGGLVQTGESLRLSCVASGIAFSRYIVGWYRQAPGKERELVASVRRNSGTNYVGDLKGGFFISSKNANNTVYQEMNNLKPADDAVYYCSTARPFLGDLPNNCGYWTQVTVSS
# B11: 2B-D4 (VHH)
# VHH: QVQLVESGGGLVQAGGSLRLSCAASGIAFSRYTMGWYRQAPGKQRELVADFSREGTTRYADAVKGRFTISRDNAKNTVYLEMNSLKPEDTAVYYCNARRPFLGNLANNWGRGTQVTVSS
# B12: 2B-E6 (VHH)
# VHH: QVQLVESGGGLVQPGGSLRLSCAASGRTVSSYVMGWYRQAPGKEREFVASVRWTTGLTYVEDSVKGRFTISRDNTKSTVDLQMNSLKPEDTAIYYCNARPLVMLGPTEAGYWGQGTQVTVSS
# B13: Nb D10 (VHH)
# VHH: QVQLVESGGGLVQPGGSLRLSCAASGFTFNRATMSWYRQAPGKERELVATIGSFGISTNYTDSVKGRFTISRDNAKNTLYLQMNSLKPEDTAVYYCNARYRSTYPWGQGTQVTVSS
# notes: alpaca VHH selected against hASIC1a; source: E. coli WK6, periplasm
# B14: Nb H10 (VHH)
# VHH: B13 VHH with S21T, N30S, I56V, T61A, L79A, Q82Y, S85N, R99H
# notes: as for B13
# B15: hASIC1a comprising amino acids 12–478 with a Strep Tag II in the N-terminus (domain or fragment, human, UniProt P78348-2 12-478, looked up)
# chain: GVQPVSIQAFASSSTLHGLAHIFSYERLSLKRALWALCFLGSLAVLLCVCTERVQYYFHYHHVTKLDEVAASQLTFPAVTLCNLNEFRFSQVSKNDLYHAGELLALLNNRYEIPDTQMADEKQLEILQDKANFRSFKPKPFNMREFYDRAGHDIRDMLLSCHFRGEVCSAEDFKVVFTRYGKCYTFNSGRDGRPRLKTMKGGTGNGLEIMLDIQQDEYLPVWGETDETSFEAGIKVQIHSQDEPPFIDQLGFGVAPGFQTFVACQEQRLIYLPPPWGTCKAVTMDSDLDFFDSYSITACRIDCETRYLVENCNCRMVHMPGDAPYCTPEQYKECADPALDFLVEKDQEYCVCEMPCNLTRYGKELSMVKIPSKASAKYLAKKFNKSEQYIGENILVLDIFFEVLNYETIEQKKAYEIAGLLGDIGGQMGLFIGASILTVLELFDYAYEVIKHKLCRRGKCQKEAKRS
# notes: human acid-sensing ion channel 1a (ASIC1a), residues 12-478 (50 a.a. carboxyl terminal deletion); Trimer in the cryo-EM structure; also called human ASIC1a; recombinant hASIC1a protein; source: HEK293F (FreeStyle 293 F) cells, transfected (pcDNA3.1); crude membranes, solubilised in DDM, purified (Strep Tactin XT, SEC); not shown: Strep Tag II, N-terminal, kept
# B16: Nb.C1 (VHH)
# VHH: B13 VHH with G15R, N30S, T33A, L47M, A49S, I56V, T61S, L79V, Q82H, T103S
# notes: alpaca VHH selected by phage display against hASIC1a; Expressed from the phagemid pADL-22c; also called Nb.1C; Nb.C1-HA; source: E. coli WK6, periplasm, purified (Ni-NTA); not shown: HA, C-terminal, kept
# B17: Nb C4 (VHH)
# VHH: B13 VHH with N30S, T33A, L47M, T61S, L79V, Q82H
# notes: alpaca VHH selected against hASIC1a; The name is read out of the printed "C1-4-5"; also called C4 (printed within "C1-4-5"); source: E. coli WK6, periplasm
# What was measured:
# [1] = molecular target: T1, human ASIC1a-Flag (human)
# [2] = molecular target: T2, hASIC1a comprising amino acids 12–478 with a Strep Tag II in the N-terminus (human, UniProt P78348-2)
# [3] = molecular target: T3, human ASIC1a-Flag (Homo sapiens, ASIC1a (528 aa isoform), UniProt P78348-2); experiment: immunostaining of cells or tissue; transfected cells on coverslips incubated with Nb (1 nM, 1 hr, on ice) in the medium, washed, fixed, permeabilized; Nb detected by anti-HA, channel by anti-Flag; confocal microscopy; settings: one partner purified
# T3 construct: human acid-sensing ion channel 1a (ASIC1a); this molecule is used for them; also called hASIC1a; hASIC1a-Flag; source: HEK293T / HEK-293 cells, transfected (pcDNA3.1), on cells
# [4] = molecular target: the molecule itself; experiment: cryo-EM structure; hASIC1a-Nb.C1 complex in DDM, pH 7.4, 20 mM HEPES, 150 mM NaCl, 5 mM CaCl2, 3.8 mg/mL; C3 symmetry imposed
# [5] = molecular target: T2, hASIC1a comprising amino acids 12–478 …; experiment: SPR + immunostaining of cells or tissue; equilibrium constant worked out from the smallest kon of the SPR (purified, immobilised hASIC1a) and the upper limit of koff from the live-cell chase (hASIC1a on HEK293 cells); settings: one partner purified
# [6] = molecular target: T4, chicken ASIC1-Flag (Gallus gallus, ASIC1, UniProt Q1XA76); experiment: immunostaining of cells or tissue; transfected cells on coverslips incubated with Nb (1 nM, 1 hr, on ice) in the medium, washed, fixed, permeabilized; Nb detected by anti-HA, channel by anti-Flag; confocal microscopy; settings: one partner purified
# T4 construct: chicken acid-sensing ion channel 1 (cASIC1); also called cASIC1; source: transfected cells, on cells
# [7] = molecular target: T5, mouse ASIC1a-Flag (Mus musculus, ASIC1a, UniProt Q6NXK8-1); experiment: as above; settings: one partner purified
# T5 construct: mouse acid-sensing ion channel 1a (ASIC1a); also called mASIC1a; mASIC1; source: transfected cells, on cells
# [8] = molecular target: T6, mouse ASIC2a-Flag (Mus musculus, ASIC2a (512 aa isoform), UniProt Q925H0-1); experiment: as above; settings: one partner purified
# T6 construct: mouse acid-sensing ion channel 2a (ASIC2a); also called mASIC2a; source: transfected cells, on cells
# T6 sequence (Q925H0 whole entry, canonical isoform): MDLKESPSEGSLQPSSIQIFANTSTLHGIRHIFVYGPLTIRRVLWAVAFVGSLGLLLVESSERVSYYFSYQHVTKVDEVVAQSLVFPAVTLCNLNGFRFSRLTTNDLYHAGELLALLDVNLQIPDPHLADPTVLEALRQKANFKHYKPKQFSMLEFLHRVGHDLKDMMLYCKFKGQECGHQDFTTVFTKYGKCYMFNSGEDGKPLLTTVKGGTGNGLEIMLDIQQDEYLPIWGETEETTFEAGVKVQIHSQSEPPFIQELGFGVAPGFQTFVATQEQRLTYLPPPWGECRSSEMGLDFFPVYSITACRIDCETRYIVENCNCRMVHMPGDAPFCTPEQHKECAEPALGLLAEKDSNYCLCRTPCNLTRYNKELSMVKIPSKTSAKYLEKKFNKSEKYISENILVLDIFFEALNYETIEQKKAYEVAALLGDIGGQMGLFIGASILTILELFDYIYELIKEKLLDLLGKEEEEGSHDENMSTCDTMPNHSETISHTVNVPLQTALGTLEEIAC
# [9] = molecular target: T7, mouse ASIC3-Flag (Mus musculus, ASIC3, UniProt Q6X1Y6); experiment: as above; settings: one partner purified
# T7 construct: mouse acid-sensing ion channel 3 (ASIC3); also called mASIC3; source: transfected cells, on cells
# T7 sequence (Q6X1Y6 whole entry): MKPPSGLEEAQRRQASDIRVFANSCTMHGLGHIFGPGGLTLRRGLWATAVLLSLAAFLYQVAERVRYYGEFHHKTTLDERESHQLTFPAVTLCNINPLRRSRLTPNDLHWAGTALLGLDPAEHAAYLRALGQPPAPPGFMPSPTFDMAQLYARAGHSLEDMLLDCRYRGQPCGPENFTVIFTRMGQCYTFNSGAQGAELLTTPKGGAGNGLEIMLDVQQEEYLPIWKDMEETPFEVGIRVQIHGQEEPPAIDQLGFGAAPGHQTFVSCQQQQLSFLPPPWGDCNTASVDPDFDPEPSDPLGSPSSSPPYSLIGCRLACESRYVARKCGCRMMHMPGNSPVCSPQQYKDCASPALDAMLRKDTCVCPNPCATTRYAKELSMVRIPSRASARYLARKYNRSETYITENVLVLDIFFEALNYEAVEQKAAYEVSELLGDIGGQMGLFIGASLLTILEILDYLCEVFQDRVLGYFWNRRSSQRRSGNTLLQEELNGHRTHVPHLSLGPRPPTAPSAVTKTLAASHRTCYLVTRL
# [10] = molecular target: T2, hASIC1a comprising amino acids 12–478 …; experiment: SEC; purified Nb.C1 added to crude membranes of 293 F cells expressing Strep-tagged hASIC1a (4°C, 3 hr) before solubilisation with 1% DDM; Strep Tactin XT affinity purification, then Superdex 200 Increase; peak run on Coomassie-stained SDS-PAGE; settings: one partner purified
# [11] = molecular target: T2, hASIC1a comprising amino acids 12–478 …; experiment: SPR; Biacore S200; hASIC1a amine-coupled to a CM5 chip (diluted in sodium acetate pH 5.0, 0.05% DDM); Nb.C1 injected at 0.41-100 nM, 30 µL/min; association 100 or 300 s, dissociation 300 or 3600 s; two protein preparations; global fits to association time courses; settings: both partners purified
# [12] = molecular target: T3, human ASIC1a-Flag; experiment: immunostaining of cells or tissue; chase: live HEK293 cells transfected with hASIC1a-Flag incubated with 10 nM Nb.C1-HA for 30 min at 18°C, washed, followed for 0-4 hr with a wash each hour, then fixed; Nb.C1 fluorescence normalised to time 0; koff estimated from the lack of decay; settings: one partner purified
molecule,measurement,setting,value
psalmotoxin-1 (PcTx1) (from UniProt P60514 1-40) (peptide),"time constant of recovery of pH 6.0-induced currents after 60 s with 10 nM PcTx1, oocytes expressing hASIC1a (two-electrode voltage clamp)",[1],220 s
B1,binding result,[2],binds
B2,binding result,[2],binds
B3,binding result,[2],binds
B4,binding result,[2],binds
B5,binding result,[2],binds
B6,binding result,[2],binds
B7,binding result,[2],binds
B8,binding result,[2],binds
B9,binding result,[2],binds
B10,binding result,[2],binds
B11,binding result,[2],binds
B12,binding result,[2],binds
B13,binding result,[3],binds
B14,binding result,[3],binds
B15,stoichiometry N,[4],3
B16,Kd,[5],≤ 0.2 nM
same,binding result,[6],no binding (tested: 1 nM)
same,binding result,[7],no binding (tested: 1 nM)
same,binding result,[8],no binding (tested: 1 nM)
same,binding result,[9],no binding (tested: 1 nM)
same,stoichiometry N,[10],1
same,kon,[11],68000 to 220000 M⁻¹ s⁻¹
same,koff,[12],≤ 1.4e-05 s⁻¹
B17,binding result,[3],binds
